The results in this text go back to article PMC12412652 (2025).

Some results are limits rather than exact numbers.

T1: BCL-W (Homo sapiens)
T1 chain: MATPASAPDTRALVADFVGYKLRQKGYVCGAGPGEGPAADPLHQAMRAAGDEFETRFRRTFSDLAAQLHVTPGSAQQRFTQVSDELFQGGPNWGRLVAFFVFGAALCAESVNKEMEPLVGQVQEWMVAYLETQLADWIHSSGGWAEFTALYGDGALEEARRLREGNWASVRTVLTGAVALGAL

T2: MCL-1 (Homo sapiens)
T2 chain: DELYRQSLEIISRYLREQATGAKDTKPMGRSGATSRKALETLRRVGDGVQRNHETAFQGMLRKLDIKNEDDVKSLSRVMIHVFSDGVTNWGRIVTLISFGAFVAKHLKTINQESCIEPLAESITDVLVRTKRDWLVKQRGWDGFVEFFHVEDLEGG

T3: BCL-B (Homo sapiens)
T3 chain: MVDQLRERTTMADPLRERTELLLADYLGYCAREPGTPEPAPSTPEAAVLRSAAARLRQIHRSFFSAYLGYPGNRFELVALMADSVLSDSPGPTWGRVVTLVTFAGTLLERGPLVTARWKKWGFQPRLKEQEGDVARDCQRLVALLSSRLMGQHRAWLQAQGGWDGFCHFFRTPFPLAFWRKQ

B1: αBAK1 (designed binder)
chain: GADPKKVLDKAKDQMENVVRKLKQILEELAKEARKLDLTQDEKIELILRYIVAHLAAIGDIEEAIREAKEEADKLKKAGLVNSQQLDEFKRRLEELHKEADRKRRDYAEEFRNKLEYG
modifications: biotinylated for BLI (Avi tag). Limits not given; the soluble form lacking the transmembrane segment (210-226) is taken by convention. Any loop deletion is not stated
B2: αBAK2 (designed binder)
chain: GADPKKVLDKADDQMENVVVTLKQELEELAKERRKLDLTQSEKIELKLRYIVAHLAAIGDIEEAIREAKEEADKLKKAGLVNSQQFAEFKRRLEELHKEADRKRRDYAEEFRNKLEYG
modifications: biotinylated for BLI (Avi tag). Limits not given; the soluble form lacking the transmembrane segment (210-226) is taken by convention. Any loop deletion is not stated
B3: αBAX1 (designed binder)
chain: GADPKKVLDKARDQAENRVRELAQKLEELYKEARKLDLTQEERRKLEKRYKAAMEEAIKDIHEAIEQAKEEADKLKDAGLVNEQQLKELKQRLNELAIAAAFRASGDTIEFRRKLQYG
modifications: biotinylated for BLI (Avi tag). Limits not given; the soluble form lacking the transmembrane segment (210-226) is taken by convention. Any loop deletion is not stated
B4: BAX-CDP01 (BAX-targeting computationally designed protein 01) (designed binder)
chain: GADPKKVLDKARDQAENRVRELAQKLEELYKEARKLDLTQEERRKLEKRYKAAMEEAIKDIREAIRQAKQEADKLKKAGLVNSQQLKELKQRLNELAIAAALRAIGDAIEFRRKLQYG
modifications: biotinylated for BLI (Avi tag). Limits not given; the soluble form lacking the transmembrane segment (210-226) is taken by convention. Any loop deletion is not stated
B5: αBAX2 (designed binder)
chain: GADPKKVLDKARDQAENRVRELRQKLTELYKEARKLDLTQEERRKLIKRYKAAMNEAIKDIHEAIEQAKEEADKLKDAGLVNEQQLKELKQRLNEKALAAAFRASGDTWHARRKLQYG
modifications: biotinylated for BLI (Avi tag). Limits not given; the soluble form lacking the transmembrane segment (210-226) is taken by convention. Any loop deletion is not stated
B6: BAK-CDP02 (BAK-targeting computationally designed protein 02 of 11) (designed binder)
chain: GADPKKVLDKAKDQAENVVRKLKQILEELYKEARKLDLTQDEKIELILRYIAAMLAAIGDILEAIRQAKEEADKLKKAGLVNSQQLDELKRRLEELRKEAARKARDYAEEFRNKLEYG
modifications: biotinylated for BLI (Avi tag). Limits not given; the soluble form lacking the transmembrane segment (210-226) is taken by convention. Any loop deletion is not stated
B7: αBAK1 (designed binder)
chain: GADPKKVLDKAKDQMENVVRKLKQILEELAKEARKLDLTQDEKIELILRYIVAHLAAIGDIEEAIREAKEEADKLKKAGLVNSQQLDEFKRRLEELHKEADRKRRDYAEEFRNKLEYG
modifications: biotinylated for BLI (Avi tag). Limits not printed in the text (constructs as in cited earlier work); the soluble form lacking the C-terminal tail is taken by convention. Any solubility mutations are not stated
B8: αBAK2 (designed binder)
chain: GADPKKVLDKADDQMENVVVTLKQELEELAKERRKLDLTQSEKIELKLRYIVAHLAAIGDIEEAIREAKEEADKLKKAGLVNSQQFAEFKRRLEELHKEADRKRRDYAEEFRNKLEYG
modifications: biotinylated for BLI (Avi tag). Limits not printed in the text (constructs as in cited earlier work); the soluble form lacking the C-terminal tail is taken by convention. Any solubility mutations are not stated
B9: αBAX1 (designed binder)
chain: GADPKKVLDKARDQAENRVRELAQKLEELYKEARKLDLTQEERRKLEKRYKAAMEEAIKDIHEAIEQAKEEADKLKDAGLVNEQQLKELKQRLNELAIAAAFRASGDTIEFRRKLQYG
modifications: biotinylated for BLI (Avi tag). Limits not printed in the text (constructs as in cited earlier work); the soluble form lacking the C-terminal tail is taken by convention. Any solubility mutations are not stated
B10: BAX-CDP01 (BAX-targeting computationally designed protein 01) (designed binder)
chain: GADPKKVLDKARDQAENRVRELAQKLEELYKEARKLDLTQEERRKLEKRYKAAMEEAIKDIREAIRQAKQEADKLKKAGLVNSQQLKELKQRLNELAIAAALRAIGDAIEFRRKLQYG
modifications: biotinylated for BLI (Avi tag). Limits not printed in the text (constructs as in cited earlier work); the soluble form lacking the C-terminal tail is taken by convention. Any solubility mutations are not stated
B11: αBAX2 (designed binder)
chain: GADPKKVLDKARDQAENRVRELRQKLTELYKEARKLDLTQEERRKLIKRYKAAMNEAIKDIHEAIEQAKEEADKLKDAGLVNEQQLKELKQRLNEKALAAAFRASGDTWHARRKLQYG
modifications: biotinylated for BLI (Avi tag). Limits not printed in the text (constructs as in cited earlier work); the soluble form lacking the C-terminal tail is taken by convention. Any solubility mutations are not stated
B12: BAK-CDP02 (BAK-targeting computationally designed protein 02 of 11) (designed binder)
chain: GADPKKVLDKAKDQAENVVRKLKQILEELYKEARKLDLTQDEKIELILRYIAAMLAAIGDILEAIRQAKEEADKLKKAGLVNSQQLDELKRRLEELRKEAARKARDYAEEFRNKLEYG
modifications: biotinylated for BLI (Avi tag). Limits not printed in the text (constructs as in cited earlier work); the soluble form lacking the C-terminal tail is taken by convention. Any solubility mutations are not stated
B13: αBAK2 (designed binder)
chain: GADPKKVLDKADDQMENVVVTLKQELEELAKERRKLDLTQSEKIELKLRYIVAHLAAIGDIEEAIREAKEEADKLKKAGLVNSQQFAEFKRRLEELHKEADRKRRDYAEEFRNKLEYG
modifications: biotinylated for BLI (Avi tag). Limits not given; the conventional BCL-2-fold core 172-327 is taken
B14: αBAK1 (designed binder)
chain: GADPKKVLDKAKDQMENVVRKLKQILEELAKEARKLDLTQDEKIELILRYIVAHLAAIGDIEEAIREAKEEADKLKKAGLVNSQQLDEFKRRLEELHKEADRKRRDYAEEFRNKLEYG
modifications: biotinylated for BLI (Avi tag). Limits not given; the conventional BCL-2-fold core 172-327 is taken
B15: BAX-CDP01 (BAX-targeting computationally designed protein 01) (designed binder)
chain: GADPKKVLDKARDQAENRVRELAQKLEELYKEARKLDLTQEERRKLEKRYKAAMEEAIKDIREAIRQAKQEADKLKKAGLVNSQQLKELKQRLNELAIAAALRAIGDAIEFRRKLQYG
modifications: biotinylated for BLI (Avi tag). Limits not given; the conventional BCL-2-fold core 172-327 is taken
B16: αBAX2 (designed binder)
chain: GADPKKVLDKARDQAENRVRELRQKLTELYKEARKLDLTQEERRKLIKRYKAAMNEAIKDIHEAIEQAKEEADKLKDAGLVNEQQLKELKQRLNEKALAAAFRASGDTWHARRKLQYG
modifications: biotinylated for BLI (Avi tag). Limits not given; the conventional BCL-2-fold core 172-327 is taken
B17: αBAX1 (designed binder)
chain: GADPKKVLDKARDQAENRVRELAQKLEELYKEARKLDLTQEERRKLEKRYKAAMEEAIKDIHEAIEQAKEEADKLKDAGLVNEQQLKELKQRLNELAIAAAFRASGDTIEFRRKLQYG
modifications: biotinylated for BLI (Avi tag). Limits not given; the conventional BCL-2-fold core 172-327 is taken
B18: BAK-CDP02 (BAK-targeting computationally designed protein 02 of 11) (designed binder)
chain: GADPKKVLDKAKDQAENVVRKLKQILEELYKEARKLDLTQDEKIELILRYIAAMLAAIGDILEAIRQAKEEADKLKKAGLVNSQQLDELKRRLEELRKEAARKARDYAEEFRNKLEYG
modifications: biotinylated for BLI (Avi tag). Limits not given; the conventional BCL-2-fold core 172-327 is taken
B19: αBAK2 (designed binder)
chain: GADPKKVLDKADDQMENVVVTLKQELEELAKERRKLDLTQSEKIELKLRYIVAHLAAIGDIEEAIREAKEEADKLKKAGLVNSQQFAEFKRRLEELHKEADRKRRDYAEEFRNKLEYG
modifications: biotinylated for BLI (Avi tag). Limits not given; the soluble form lacking the transmembrane segment (183-200) is taken by convention
B20: αBAK1 (designed binder)
chain: GADPKKVLDKAKDQMENVVRKLKQILEELAKEARKLDLTQDEKIELILRYIVAHLAAIGDIEEAIREAKEEADKLKKAGLVNSQQLDEFKRRLEELHKEADRKRRDYAEEFRNKLEYG
modifications: biotinylated for BLI (Avi tag). Limits not given; the soluble form lacking the transmembrane segment (183-200) is taken by convention
B21: αBAX1 (designed binder)
chain: GADPKKVLDKARDQAENRVRELAQKLEELYKEARKLDLTQEERRKLEKRYKAAMEEAIKDIHEAIEQAKEEADKLKDAGLVNEQQLKELKQRLNELAIAAAFRASGDTIEFRRKLQYG
modifications: biotinylated for BLI (Avi tag). Limits not given; the soluble form lacking the transmembrane segment (183-200) is taken by convention
B22: BAX-CDP01 (BAX-targeting computationally designed protein 01) (designed binder)
chain: GADPKKVLDKARDQAENRVRELAQKLEELYKEARKLDLTQEERRKLEKRYKAAMEEAIKDIREAIRQAKQEADKLKKAGLVNSQQLKELKQRLNELAIAAALRAIGDAIEFRRKLQYG
modifications: biotinylated for BLI (Avi tag). Limits not given; the soluble form lacking the transmembrane segment (183-200) is taken by convention
B23: αBAX2 (designed binder)
chain: GADPKKVLDKARDQAENRVRELRQKLTELYKEARKLDLTQEERRKLIKRYKAAMNEAIKDIHEAIEQAKEEADKLKDAGLVNEQQLKELKQRLNEKALAAAFRASGDTWHARRKLQYG
modifications: biotinylated for BLI (Avi tag). Limits not given; the soluble form lacking the transmembrane segment (183-200) is taken by convention
B24: BAK-CDP02 (BAK-targeting computationally designed protein 02 of 11) (designed binder)
chain: GADPKKVLDKAKDQAENVVRKLKQILEELYKEARKLDLTQDEKIELILRYIAAMLAAIGDILEAIRQAKEEADKLKKAGLVNSQQLDELKRRLEELRKEAARKARDYAEEFRNKLEYG
modifications: biotinylated for BLI (Avi tag). Limits not given; the soluble form lacking the transmembrane segment (183-200) is taken by convention

For one assay, the target named is BCL-XL (Homo sapiens). The assay can be described thus: BLI. Background: Biolayer interferometry detects binding as a change in optical thickness at a sensor tip.
Chain of BCL-XL (Homo sapiens) (chain, as listed by the source): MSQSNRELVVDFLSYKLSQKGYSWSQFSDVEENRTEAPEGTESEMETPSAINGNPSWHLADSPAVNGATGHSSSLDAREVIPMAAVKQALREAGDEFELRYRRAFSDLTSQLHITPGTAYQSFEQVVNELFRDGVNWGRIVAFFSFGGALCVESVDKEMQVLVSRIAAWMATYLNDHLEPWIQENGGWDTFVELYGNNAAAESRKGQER
Molecule B1 registered a Kd of 100000 nM.

B2 registered a Kd of 5700 nM.

B3 showed a Kd of 510 nM. Against the preceding molecule, the Kd is about 11-fold lower.

For B4, the Kd amounted to 38 nM.

B5 yielded a Kd of 1090 nM. This Kd is about 29-fold higher than that of the molecule before.

The molecule B6 yielded a Kd of 30000 nM.

A further assay addresses T1, BCL-W. The assay can be described thus: BLI.
In turn, B7 came in with a Kd of 9550 nM.

B8 registered a Kd of 5000 nM.

With B9, the Kd was found to be 300000 nM.

Take B10: the affinity, expressed as Kd, was 6000 nM.

B11 showed a Kd of 30000 nM.

For the molecule B12, the Kd is 800 nM.

The next assay has as its target T2, MCL-1. The assay can be described thus: BLI.
In turn, B13 had a Kd of 310 nM.

Consider B14, for which the Kd worked out at 500 nM.

On to B15, for which the Kd is 10 nM.

B16: the Kd was found to be 18000 nM.

The molecule B17 returned a Kd of 600 nM.

The molecule B18 showed a Kd of 5.4 nM. Compared with the last molecule, the Kd is about 110-fold lower.

Another assay addresses T3, BCL-B. The assay can be described thus: BLI.
As to B19, the affinity, expressed as Kd, was 3000 nM.

B20 gave a Kd of 12000 nM. Compared with the last molecule, the Kd is about 4-fold higher.

As to B21, the Kd is > 20000 nM.

Take B22: the affinity, expressed as Kd, was 2000 nM. That is a single-digit micromolar value.

As for B23, the Kd came out at 80000 nM.

Take B24: the Kd amounted to 200 nM.

The term Kd denotes the free concentration of one partner at which half of the binding sites on the other are occupied at equilibrium, for simple one-to-one binding. Read a high Kd as weaker binding.
